Source: patent US20240002479A1 (REGENTS OF THE UNIVERSITY OF MICHIGAN, published 2024)

T1: DENV2 NS1 (dengue virus serotype 2 non-structural protein 1), wild type (Dengue virus 2, UniProt P29990 776-1127)
T1 sequence: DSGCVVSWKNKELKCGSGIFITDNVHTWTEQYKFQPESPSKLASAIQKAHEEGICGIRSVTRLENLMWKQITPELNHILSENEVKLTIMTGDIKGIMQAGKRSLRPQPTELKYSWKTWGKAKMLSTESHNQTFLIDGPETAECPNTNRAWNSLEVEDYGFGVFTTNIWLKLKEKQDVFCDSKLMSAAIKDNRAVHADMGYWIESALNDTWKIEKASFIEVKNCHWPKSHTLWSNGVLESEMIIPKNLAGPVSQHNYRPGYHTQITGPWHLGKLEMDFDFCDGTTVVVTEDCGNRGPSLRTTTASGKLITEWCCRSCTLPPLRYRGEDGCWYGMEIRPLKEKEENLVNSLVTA


Columns and labels:
[1] = target: T1, DENV2 NS1 (dengue virus serotype 2 …); test: BLI, NS1 on anti-His tips; full-length 2B7, not Fab
[2] = target: T1, DENV2 NS1 (dengue virus serotype 2 …); test: direct ELISA, 2B7 titrated on purified DENV2 NS1, OD450
[3] = target: T1, DENV2 NS1 (dengue virus serotype 2 …); test: BLI, NS1 on anti-His tips, n=2 preparations
[4] = target: T1, DENV2 NS1 (dengue virus serotype 2 …); test: BLI, NS1 on anti-His tips; Fab, not full-length IgG

| Binder | Kd [1] [nM] | EC50 (read off the curve) [2] [ng/mL] | Kd [3] [nM] | Kd [4] [nM] |
| --- | --- | --- | --- | --- |
| anti-DENV NS1 IgG2b mouse monoclonal antibody (mAb) 2B7 (antibody, V domains shown) VH: EVQLQQSGPELVKPGASVKMSCKASGCTLTNCFMHWMKQKPGQDLEWIGYINPYNDMTKYSENFKGKATLTSDKSSSTAFMELSSLTSEDSAVYYCARGYLLRTGCFDYWGQGTTLTVSS VL: NIVLTQSPASLAVSLGQRATISCRASESVDSYGYSFMHWYQQKPGQPPKVLIYLASNLESGVPARFSGSGSRTDFTLTIDPVEADDAATYYCQQNNENPLTFGAGTKLELKR | 4.8 | ~5 | – | – |
| 2B7 Fab (Fab, V domains shown) VH: EVQLQQSGPELVKPGASVKMSCKASGCTLTNCFMHWMKQKPGQDLEWIGYINPYNDMTKYSENFKGKATLTSDKSSSTAFMELSSLTSEDSAVYYCARGYLLRTGCFDYWGQGTTLTVSS VL: NIVLTQSPASLAVSLGQRATISCRASESVDSYGYSFMHWYQQKPGQPPKVLIYLASNLESGVPARFSGSGSRTDFTLTIDPVEADDAATYYCQQNNENPLTFGAGTKLELK | – | – | 5 to 8 | 8.3 |
